{"source": "paper PMC11785930", "molecular_target": "STAT3 (protein used in the ELISA) (UniProt P42227)", "experiment": "ELISA; documented protocol (ref. 44); which protein was coated and the conditions are not told"}
{"substance": "Becn1 (protein used in the ELISA) (from UniProt O88597 1-448) (natural protein)", "values": [{"measurement": "Kd", "value": 120, "unit": "nM"}]}
